In data set [1] the target is Bovine annexin A2 (bovine) (UniProt P04272). The data set is described as follows: SPR; AnxA2 or mAnxA2 immobilised on a CM5 chip by amine coupling, NS5B (31 to 500 nM) as analyte; multi cycle with regeneration (2 M NaCl and 2 M MgCl2); 25 °C, HBS-EP pH 7.4 with 70 uM Ca2+ and 1 mM Mg2+; approximate steady state analysis, apparent KD. (In SPR one partner is held on a chip, and binding of the other changes the refractive index at the surface.)

The target of data set [2] is Bovine annexin A2 engineered variant unable to bind RNA (mAnxA2) (bovine) (UniProt P04272). Described as above.
Data set [3] concerns the target T1, AnxA2 (annexin A2, wt) (Bos taurus (bovine), UniProt P04272 1-339). The data set is described as follows: SPR; steady-state analysis; 70 uM Ca2+, 1 mM Mg2+; AnxA2 immobilized; HBS-EP: 10 mM HEPES pH 7.4, 150 mM NaCl, 3 mM EDTA, 0.005% Surfactant P20, 70 uM Ca2+, 1 mM Mg2+, 25 °C. The following applies: protein: recombinant; single strand.
Another data set concerns the target mAnxA2 (Bos taurus (bovine), UniProt P04272 1-339, K308S;K309S;K310S;K313S;Y317S;Q321S). Kind of data set: SPR; 3-100 nM RNA over immobilized mAnxA2; 70 uM Ca2+, 1 mM Mg2+; HBS-EP: 10 mM HEPES pH 7.4, 150 mM NaCl, 3 mM EDTA, 0.005% Surfactant P20, 70 uM Ca2+, 1 mM Mg2+, 25 °C. The following applies: protein: recombinant; single strand.
The target in data set [4] is T1, AnxA2 (annexin A2, wt). Kind of data set: SPR; kinetic 1:1 fit (ka 0.99e6 1/Ms, kd 0.002 1/s); 70 uM Ca2+, 1 mM Mg2+; AnxA2 immobilized; HBS-EP: 10 mM HEPES pH 7.4, 150 mM NaCl, 3 mM EDTA, 0.005% Surfactant P20, 70 uM Ca2+, 1 mM Mg2+, 25 °C. The conditions noted are these: protein: recombinant; single strand.

For the molecule “HCV NS5B polymerase, ectodomain (NS5BΔ21), genotype 1b (enzyme)”, the Kd in data set [1] came to 30 nM; in data set [2], 240 nM.

GGGGAUUG (ssRNA) [8-mer RNA]: the Kd is 8.3 nM in the data set with AnxA2 (annexin A2, wt) [3] and 2 nM with AnxA2 (annexin A2, wt) [4]. Moreover, the binding result in the data set with mAnxA2 is listed as “no binding”.

The values above are taken from paper PMC5725786, “Characterization of interactions between hepatitis C virus NS5B polymerase, annexin A2 and RNA – effects on NS5B catalysis and allosteric inhibition”.
